Each block holds one substance with its values, some of them ahead of it.
What was measured:
U-MK2 = target: T1, U-MK2 (Homo sapiens, UniProt P49137+P63279); assay: Trans-SUMOylation by U-MK2; format: cell-based; conditions: protein 2 construct coexpressed with U-MK2 and EGFP-SUMO1 in HEK293
T1 construct: expressed in transfected cells; host or cells: HEK293

U-p38α = target: T2, U-p38α (Homo sapiens, UniProt P63279+Q16539); assay: Trans-SUMOylation by U-p38α; format: cell-based; conditions: protein 2 construct coexpressed with U-p38α and EGFP-SUMO1 in HEK293
T2 construct: expressed in transfected cells; host or cells: HEK293
T2 sequence (P63279+Q16539 fused): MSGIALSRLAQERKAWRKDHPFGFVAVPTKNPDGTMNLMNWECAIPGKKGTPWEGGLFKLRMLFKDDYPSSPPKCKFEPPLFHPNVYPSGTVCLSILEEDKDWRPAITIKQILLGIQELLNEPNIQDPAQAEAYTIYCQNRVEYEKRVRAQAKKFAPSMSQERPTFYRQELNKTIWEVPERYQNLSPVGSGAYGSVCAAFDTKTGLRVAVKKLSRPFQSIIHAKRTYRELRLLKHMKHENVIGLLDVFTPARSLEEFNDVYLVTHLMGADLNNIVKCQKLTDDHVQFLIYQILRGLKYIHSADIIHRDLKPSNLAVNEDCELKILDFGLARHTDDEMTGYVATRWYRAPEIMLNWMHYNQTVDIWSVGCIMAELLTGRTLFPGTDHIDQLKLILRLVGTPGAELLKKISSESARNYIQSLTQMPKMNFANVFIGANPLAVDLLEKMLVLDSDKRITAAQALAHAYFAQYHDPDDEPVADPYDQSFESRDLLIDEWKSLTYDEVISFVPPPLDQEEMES

JUN-U = target: T3, JUN-U (Homo sapiens, UniProt P05412+P63279); assay: Trans-SUMOylation by JUN-U; format: cell-based; conditions: protein 2 construct coexpressed with JUN-U and EGFP-SUMO1 in HEK293, western blot
T3 construct: expressed in transfected cells; host or cells: HEK293
T3 sequence (P05412+P63279 fused): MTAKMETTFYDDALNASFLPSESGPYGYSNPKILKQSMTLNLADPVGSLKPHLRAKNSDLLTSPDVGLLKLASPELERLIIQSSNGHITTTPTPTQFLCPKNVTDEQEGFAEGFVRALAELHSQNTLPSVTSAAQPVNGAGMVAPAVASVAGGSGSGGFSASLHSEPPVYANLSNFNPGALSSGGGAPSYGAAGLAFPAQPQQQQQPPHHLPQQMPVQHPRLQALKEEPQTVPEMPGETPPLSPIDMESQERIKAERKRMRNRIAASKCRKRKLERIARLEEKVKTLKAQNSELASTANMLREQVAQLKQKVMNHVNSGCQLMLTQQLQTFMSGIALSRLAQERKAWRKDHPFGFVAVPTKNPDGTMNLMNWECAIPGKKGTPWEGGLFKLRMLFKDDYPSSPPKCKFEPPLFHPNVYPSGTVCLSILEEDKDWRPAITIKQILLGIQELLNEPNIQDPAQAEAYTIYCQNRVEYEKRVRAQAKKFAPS

p53-U = target: T4, p53-U (Homo sapiens, UniProt P04637+P63279); assay: Trans-SUMOylation by p53-U; format: cell-based; conditions: western blot
T4 construct: expressed in transfected cells; host or cells: HEK293

MK2-U = target: T5, MK2-U (Homo sapiens, UniProt P49137+P63279); assay: Trans-SUMOylation by MK2-U; format: cell-based; conditions: protein 2 construct coexpressed with MK2-U and EGFP-SUMO1 in HEK293
T5 construct: expressed in transfected cells; host or cells: HEK293
T5 sequence (P49137+P63279 fused): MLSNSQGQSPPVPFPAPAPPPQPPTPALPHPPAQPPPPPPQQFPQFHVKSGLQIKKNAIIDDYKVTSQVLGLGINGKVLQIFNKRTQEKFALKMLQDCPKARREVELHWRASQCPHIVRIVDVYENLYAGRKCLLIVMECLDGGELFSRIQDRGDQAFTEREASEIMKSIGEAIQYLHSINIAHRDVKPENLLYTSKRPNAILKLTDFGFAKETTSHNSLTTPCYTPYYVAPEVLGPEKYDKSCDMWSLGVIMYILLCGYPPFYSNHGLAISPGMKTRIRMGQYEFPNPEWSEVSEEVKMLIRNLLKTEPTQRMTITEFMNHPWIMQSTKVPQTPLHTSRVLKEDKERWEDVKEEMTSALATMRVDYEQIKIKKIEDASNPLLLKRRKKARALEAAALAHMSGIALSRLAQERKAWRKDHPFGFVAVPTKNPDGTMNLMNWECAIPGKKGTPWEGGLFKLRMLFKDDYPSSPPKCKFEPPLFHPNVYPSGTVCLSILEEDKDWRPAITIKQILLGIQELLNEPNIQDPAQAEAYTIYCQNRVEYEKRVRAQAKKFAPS

U-MK5 = target: T6, U-MK5 (Homo sapiens, UniProt P63279+Q8IW41); assay: Trans-SUMOylation by U-MK5; format: cell-based; set-up: key: (++), strong TransSUMOylation; (+), TransSUMOylation; (+/−) weak TransSUMOylation; (−) no detectable TransSUMOylation; conditions: protein 2 construct coexpressed with U-MK5 and EGFP-SUMO1 in HEK293; western blot; Table 2
T6 construct: expressed in transfected cells; host or cells: HEK293
T6 sequence (P63279+Q8IW41 fused): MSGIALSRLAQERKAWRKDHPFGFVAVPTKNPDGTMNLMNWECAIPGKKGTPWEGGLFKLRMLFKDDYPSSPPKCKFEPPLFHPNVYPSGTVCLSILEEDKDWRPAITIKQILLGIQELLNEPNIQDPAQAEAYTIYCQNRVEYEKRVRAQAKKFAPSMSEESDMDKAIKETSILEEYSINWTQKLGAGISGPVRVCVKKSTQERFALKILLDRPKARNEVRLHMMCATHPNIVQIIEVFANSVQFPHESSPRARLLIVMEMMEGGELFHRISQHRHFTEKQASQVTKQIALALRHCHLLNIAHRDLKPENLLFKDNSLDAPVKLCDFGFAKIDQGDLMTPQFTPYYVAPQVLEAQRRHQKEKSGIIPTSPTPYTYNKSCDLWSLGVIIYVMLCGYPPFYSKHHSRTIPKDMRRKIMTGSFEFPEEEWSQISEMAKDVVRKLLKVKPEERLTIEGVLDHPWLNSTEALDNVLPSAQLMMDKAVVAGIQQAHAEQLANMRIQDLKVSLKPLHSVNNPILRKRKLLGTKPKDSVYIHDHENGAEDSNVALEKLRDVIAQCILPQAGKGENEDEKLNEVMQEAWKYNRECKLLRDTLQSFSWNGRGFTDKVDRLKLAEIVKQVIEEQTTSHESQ
Source text: (§1) To identify new SUMOylation substrates and to study the function of SUMOylation the Ubc9/substrate dimerisation-dependent SUMOylation system (USDDS) was developed which consists of fusions of the SUMOylation substrate and of the SUMO-conjugating enzyme Ubc9 to the chemically activatable heterodimerisation domains FKBP and FRB, respectively, as shown in FIG. 2. When the substrate protein fused to FKBP is coexpressed with Ubc9-FRB, treatment of HEK293 cells with the rapamycin-related dimerizer AP21967 induces SUMOylation of the substrate protein fused to FKBP at its specific SUMOylation site. […] Dependent on an EcoRl site in the coding sequence, seven C-terminal amino acids of the human STAT1a in the STAT1-FKBP/FRB fusion proteins are missing. For the SUMOylation analysis HEK293 (human embryonic kidney cells) cells have been used. HEK293 cells were cultured in Dulbecco's modified Eagle's medium with high glucose, complemented with 10% fetal calf serum, 2 mM L-glutamine, 100 U/ml penicillin and […] streptomycin. We performed transfection of HEK293 cells using the polyethylenimine transfection reagent. HEK293 cells of a fresh confluent 10 cm plate were transferred on a 12-well plate. After 12-24 h incubation about 70% cell confluence is reached. For each well 45 μl of serum/antibiotic free DMEM medium is mixed with 750 ng of the transfection-purity expression vector DNA (all together 47 μl) and vortexed. Then, 3 μl of vortexed polyethylenimin stock solution (1 mg/ml) is added and the mixture is vortexed. After incubation at room temperature for 10 min 450 μl fresh DMEM with antibiotics is added to the mixture and vortexed. The medium on the cells was then completely removed and immediately, the 500 μl transfection mix was added carefully to each well. The 12 well plate was rocked to ensure a proper distribution of the DNA/transfection reagent complex. After an incubation of the cells for 24 h at a 37° C. in a humidified CO2-incubator (5%) the cells were lysed in 150 μl Laemmli (2×) gel loading buffer (160 mM Tris-HCL, pH 6.8, 4% (w/v) sodium dodecyl sulphate (SDS), 20% (v/v) glycerol, 0.5% β-mercaptoethanol (v/v), 0.008% (w/v) bromophenol blue) and incubated for 10 min at 95° C. For western blot analysis the proteins were separated by SDS-PAGE, blotted on a PVDF membrane and developed with specific primary antibodies (α-Ubc9 (H81, Santa Cruz), α-pY701-STAT1 (Tyr701, Cell Signaling), α-STAT1 (Cell Signaling), α-p53 (1C12, Cell Signaling), α-SUMO1 (Cell Signaling), a horseradish peroxidase (HRP)-conjugated secondary antibody (different companies), the ECL+ (Amersham) or Immobilon™ Western (Millipore) and the LAS-3000 imaging system (Fuji).
As shown above, the SUMOylation of a protein of interest can be induced by the heterodimerisation with a binding protein fused to Ubc9. To find out if Trans-SUMOylation is useful for the characterisation of common protein interactions, protein binding pairs well known from the literature or found in two hybrid screens. […] Therefore the protein pairs were coexpressed with EGFP-SUMO1 in HEK293 cells and after 24h the transfectants were lysed and the protein extracts were analyzed in western blots.
Protein-protein interactions described in the cited references were tested for Trans-SUMOylation. Each specific protein-protein interaction was tested by coexpression of different combinations of protein 1 fused to Ubc9 (U) with protein 2 mostly fused two a tag (HA, FLAG, Myc, GST, ST). (++), strong TransSUMOylation; (+), TransSUMOylation; (+/−) weak TransSUMOylation; (−) no detectable TransSUMOylation; (MEKK1ca) the activated MAP3 kinase MEKK1, that can enhance protein SUMOylation, was coexpressed.
Protein-protein interaction of each pair of protein 1/protein 2 was tested by coexpression of different combinations of a protein 1 fused to Ubc9 (U) with protein 2 mostly fused two a Tag (HA, FLAG, GST, ST). […]

U-CSNK2B = target: T7, U-CSNK2B (Homo sapiens, UniProt P63279+P67870); assay: Trans-SUMOylation by U-CSNK2B; format: cell-based; set-up: key: (++), strong TransSUMOylation; (+), TransSUMOylation; (+/−) weak TransSUMOylation; (−) no detectable TransSUMOylation; conditions: protein 2 construct coexpressed with U-CSNK2B and EGFP-SUMO1 in HEK293; western blot; Table 2
T7 construct: expressed in transfected cells; host or cells: HEK293
T7 sequence (P63279+P67870 fused): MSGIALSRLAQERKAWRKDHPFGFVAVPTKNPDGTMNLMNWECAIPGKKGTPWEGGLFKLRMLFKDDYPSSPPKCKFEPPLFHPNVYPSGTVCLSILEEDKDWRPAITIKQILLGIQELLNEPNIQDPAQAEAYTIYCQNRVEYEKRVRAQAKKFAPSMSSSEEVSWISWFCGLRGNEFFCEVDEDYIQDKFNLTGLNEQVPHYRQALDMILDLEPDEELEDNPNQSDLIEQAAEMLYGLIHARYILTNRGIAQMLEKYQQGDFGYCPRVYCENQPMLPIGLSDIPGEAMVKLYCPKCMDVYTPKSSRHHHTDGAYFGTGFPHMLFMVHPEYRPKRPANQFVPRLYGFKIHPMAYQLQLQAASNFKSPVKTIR
Source text: as §1, with “The 12 well plate was rocked to ensure a proper distribution of the DNA/transfection reagent complex. After an incubation of the cells for 24 h at a 37° C. in a humidified CO2-incubator (5%) the cells were lysed in 150 μl Laemmli (2×) gel loading buffer (160 mM Tris-HCL, pH 6.8, 4% (w/v) sodium dodecyl sulphate (SDS), 20% (v/v) glycerol, 0.5% β-mercaptoethanol (v/v), 0.008% (w/v) bromophenol blue) and incubated for 10 min at 95° C. For western blot analysis the proteins were separated by SDS-PAGE, blotted on a PVDF membrane and developed with specific primary antibodies (α-Ubc9 (H81, Santa Cruz), α-pY701-STAT1 (Tyr701, Cell Signaling), α-STAT1 (Cell Signaling), α-p53 (1C12, Cell Signaling), α-SUMO1 (Cell Signaling), a horseradish peroxidase (HRP)-conjugated secondary antibody (different companies), the ECL+ (Amersham) or Immobilon™ Western (Millipore) and the LAS-3000 imaging system (Fuji).” left out
As shown above, the SUMOylation of a protein of interest can be induced by the heterodimerisation with a binding protein fused to Ubc9. […] Therefore the protein pairs were coexpressed with EGFP-SUMO1 in HEK293 cells and after 24h the transfectants were lysed and the protein extracts were analyzed in western blots. […]

STAT1-U = target: T8, STAT1-U (Homo sapiens, UniProt P42224+P63279); assay: Trans-SUMOylation by STAT1-U; format: cell-based; conditions: protein 2 construct coexpressed with STAT1-U and EGFP-SUMO1 in HEK293; western blot; Table 1
T8 construct: expressed in transfected cells; host or cells: HEK293
T8 sequence (P42224+P63279 fused): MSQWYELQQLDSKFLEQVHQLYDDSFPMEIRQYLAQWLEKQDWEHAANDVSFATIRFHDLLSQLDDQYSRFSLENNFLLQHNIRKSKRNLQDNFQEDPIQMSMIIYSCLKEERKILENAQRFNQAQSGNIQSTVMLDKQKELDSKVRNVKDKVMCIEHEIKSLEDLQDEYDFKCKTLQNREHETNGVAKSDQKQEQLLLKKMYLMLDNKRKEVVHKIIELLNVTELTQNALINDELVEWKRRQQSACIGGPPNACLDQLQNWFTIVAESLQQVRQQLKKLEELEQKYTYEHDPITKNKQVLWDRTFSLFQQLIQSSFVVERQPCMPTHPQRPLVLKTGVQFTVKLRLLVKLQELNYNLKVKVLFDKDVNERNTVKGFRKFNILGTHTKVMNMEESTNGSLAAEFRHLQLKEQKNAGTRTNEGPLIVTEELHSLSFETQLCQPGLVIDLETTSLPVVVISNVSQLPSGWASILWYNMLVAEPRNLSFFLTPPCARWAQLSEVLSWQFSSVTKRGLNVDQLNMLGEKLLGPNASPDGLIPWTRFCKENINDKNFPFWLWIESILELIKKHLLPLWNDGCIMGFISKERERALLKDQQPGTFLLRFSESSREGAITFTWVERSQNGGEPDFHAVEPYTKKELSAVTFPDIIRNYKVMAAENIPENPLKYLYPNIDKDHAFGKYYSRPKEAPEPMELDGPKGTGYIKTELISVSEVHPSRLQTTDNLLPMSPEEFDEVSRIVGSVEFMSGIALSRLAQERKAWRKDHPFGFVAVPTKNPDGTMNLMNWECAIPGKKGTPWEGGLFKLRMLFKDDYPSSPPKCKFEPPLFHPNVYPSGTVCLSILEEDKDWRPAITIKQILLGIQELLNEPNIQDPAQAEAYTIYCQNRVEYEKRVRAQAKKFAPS

STAT1 = assay: Interplay of STAT1 Y701 phosphorylation and K703 SUMOylation by USDDS, western blot; format: cell-based, human; conditions: HEK293, USDDS with AP21967 1 μM and interferon-β, any stimulation scenario
CSNK2B-U = target: T9, CSNK2B-U (Homo sapiens, UniProt P63279+P67870); assay: Trans-SUMOylation by CSNK2B-U; format: cell-based; conditions: protein 2 construct coexpressed with CSNK2B-U and EGFP-SUMO1 in HEK293; western blot; Table 1
T9 construct: expressed in transfected cells; host or cells: HEK293
T9 sequence (P67870+P63279 fused): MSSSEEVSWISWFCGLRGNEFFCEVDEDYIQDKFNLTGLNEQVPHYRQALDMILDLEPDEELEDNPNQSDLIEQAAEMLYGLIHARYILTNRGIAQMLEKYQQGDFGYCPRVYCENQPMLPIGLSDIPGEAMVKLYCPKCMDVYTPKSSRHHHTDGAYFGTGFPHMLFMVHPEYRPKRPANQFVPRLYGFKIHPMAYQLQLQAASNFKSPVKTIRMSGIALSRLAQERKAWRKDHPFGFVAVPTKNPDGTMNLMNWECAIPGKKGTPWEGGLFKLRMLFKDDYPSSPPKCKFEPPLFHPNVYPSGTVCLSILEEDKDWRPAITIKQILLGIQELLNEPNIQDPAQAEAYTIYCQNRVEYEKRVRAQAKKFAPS

[1] = protein 2 construct coexpressed with P53-U (p53-U) and EGFP-SUMO1 in HEK293, Table 1

T1 sequence (P63279+P49137 fused): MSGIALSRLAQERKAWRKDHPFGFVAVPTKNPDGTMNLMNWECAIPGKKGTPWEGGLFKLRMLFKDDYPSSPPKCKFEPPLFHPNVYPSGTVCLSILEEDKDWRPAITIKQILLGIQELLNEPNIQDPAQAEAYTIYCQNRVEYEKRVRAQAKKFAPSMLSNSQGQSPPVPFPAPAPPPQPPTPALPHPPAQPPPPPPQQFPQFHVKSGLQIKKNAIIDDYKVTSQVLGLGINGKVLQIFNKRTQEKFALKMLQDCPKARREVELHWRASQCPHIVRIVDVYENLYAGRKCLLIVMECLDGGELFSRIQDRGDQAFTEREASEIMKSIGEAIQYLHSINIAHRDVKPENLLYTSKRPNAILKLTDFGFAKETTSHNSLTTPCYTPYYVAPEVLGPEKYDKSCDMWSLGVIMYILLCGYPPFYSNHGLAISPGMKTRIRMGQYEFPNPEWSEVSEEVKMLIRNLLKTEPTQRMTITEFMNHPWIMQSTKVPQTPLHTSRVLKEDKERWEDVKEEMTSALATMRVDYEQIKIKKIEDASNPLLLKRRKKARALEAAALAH

Trans-SUMOylation (U-MK2; western blot, Table 1): − | Trans-SUMOylation (MK2-U; western blot, Table 1): −
Substance: HA-HSP27: HSP27 fused to HA tag

Trans-SUMOylation (MK2-U; western blot, Table 2): (+/−) | Trans-SUMOylation (JUN-U; Table 1): +
Substance: HA-JUN: JUN fused to HA tag

Trans-SUMOylation (U-MK2; MEKK1 coexpressed, Table 2): + (MEKK1) | Trans-SUMOylation (U-MK2; western blot, Table 2): − | Trans-SUMOylation (U-p38α; MEKK1ca (Table 1B: MEKK1) coexpressed, Table 1): ++ (MEKK1ca) | Trans-SUMOylation (U-p38α; western blot, Table 1): + | Trans-SUMOylation (MK2-U; MEKK1 coexpressed, Table 2): + (MEKK1) | Trans-SUMOylation (MK2-U; western blot, Table 2): + | Trans-SUMOylation (JUN-U; Table 2): − | Trans-SUMOylation (p53-U; protein 2 construct coexpressed with p53-U and EGFP-SUMO1 in HEK293, Table 2): − | Trans-SUMOylation (U-CSNK2B): (+/−) | Trans-SUMOylation (U-MK5): +
Substance: Myc-MK2: MK2 fused to Myc tag

The remaining lines, values behind:

Substance: HA-ERK2: ERK2 fused to HA tag
Trans-SUMOylation (U-MK2; western blot, Table 1): + | Trans-SUMOylation (U-p38α; western blot, Table 1): + | Trans-SUMOylation (JUN-U; Table 2): − | Trans-SUMOylation (p53-U; [1]): +

Substance: HA-JNK2: JNK2 fused to HA tag
Trans-SUMOylation (U-MK2; western blot, Table 2): − | Trans-SUMOylation (U-p38α; western blot, Table 2): − | Trans-SUMOylation (JUN-U; Table 1): − | Trans-SUMOylation (p53-U; [1]): − | Trans-SUMOylation (U-MK5): −

Substance: STAT1-FKBP: human STAT1a fused to FKBP heterodimerisation domain
Trans-SUMOylation (MK2-U; western blot, Table 2): − | Trans-SUMOylation (STAT1-U): − | double modification of STAT1 by SUMOylation and Y701 phosphorylation (STAT1): no double modification

Substance: p53K386R-ST(377-389): p53K386R fused to SUMOylation site tag 377-389
Trans-SUMOylation (U-MK2; western blot, Table 2): − | Trans-SUMOylation (CSNK2B-U): +

Substance: p53K386R-ST(377-391): p53K386R fused to SUMOylation site tag 377-391
Trans-SUMOylation (U-MK2; western blot, Table 2): − | Trans-SUMOylation (CSNK2B-U): +
